Data as given in patent US20250163181A1.

Assays:
[1] = target: human prothrombin wild-type (human) (UniProt P00734); assay: SPR, AHP immobilised, HEPES buffer, 25 C
[2] = target: kringle-2 of human prothrombin (amino acids 156-271) (human) (UniProt P00734); assay: SPR, AHP immobilised, HEPES buffer, 25 C
[3] = target: prothrombin variant S91A/Y93A (human) (UniProt P00734); assay: SPR, AHP immobilised, HEPES buffer, 25 C
[4] = target: human prothrombin wild-type (human) (UniProt P00734); assay: ELISA, antigen immobilised, Hill fit
[5] = target: kringle-2 of human prothrombin (amino acids 156-271) (human) (UniProt P00734); assay: ELISA, antigen immobilised, Hill fit
[6] = target: prothrombin variant S91A/Y93A (human) (UniProt P00734); assay: ELISA, antigen immobilised, Hill fit
[7] = target: human prothrombin wild-type (human) (UniProt P00734); assay: SPR, AHP immobilised; prothrombin with 200 µM argatroban (open form)
[8] = target: human prothrombin wild-type (human) (UniProt P00734); assay: SPR, calculated from Kd; prothrombin with 200 µM argatroban
[9] = target: human prothrombin wild-type (human) (UniProt P00734); assay: SPR, calculated from Kd
[10] = target: kringle-2 of human prothrombin (amino acids 156-271) (human) (UniProt P00734); assay: SPR, calculated from Kd
[11] = target: prothrombin variant S91A/Y93A (human) (UniProt P00734); assay: SPR, calculated from Kd

- Kd [1]: 38.3 nM
- koff [1]: 0.000136 s⁻¹
- kon [1]: 3540 M⁻¹ s⁻¹
- Kd [2]: 27.8 nM
- koff [2]: 0.000128 s⁻¹
- kon [2]: 4600 M⁻¹ s⁻¹
- Kd [3]: 19.5 nM
- koff [3]: 0.000123 s⁻¹
- kon [3]: 6320 M⁻¹ s⁻¹
- EC50 [4]: 0.195 µg/mL
- EC50 [5]: 0.249 µg/mL
- EC50 [6]: 0.185 µg/mL
- Kd [7]: 37.4 nM
- koff [7]: 0.000122 s⁻¹
- kon [7]: 3270 M⁻¹ s⁻¹
- ΔG [8]: -10.1 kcal/mol
- ΔG [9]: -10.1 kcal/mol
- ΔG [10]: -10.3 kcal/mol
- ΔG [11]: -10.5 kcal/mol
Substance: Antibody AHP (Prolytix AHP-5013)
